2 substances from paper PMC2757928 can be followed below.

In general, Kd refers to the free concentration of one partner at which half of the binding sites on the other are occupied at equilibrium, for simple one-to-one binding. By stoichiometry N is commonly meant a count of units in the complex or per binding partner.

The target in test [1] is IRF5 (222-467) S427D (human). As to the kind of experiment: ITC.
In test [2] the target is IRF5 (residues 222-467) (human). As to the kind of experiment: ITC. (Isothermal titration calorimetry measures the heat released or taken up as one component is titrated into another.)
The target of test [3] is IRF5 (222-467) S421D (human). As to the kind of experiment: ITC.
The target in test [4] is IRF5 (222-467) S457D (human). Description: ITC.
In test [5] the target is IRF5 (222-467) S436D (human). Description: ITC.
Test [6] addresses IRF5 (222-467) S425D (human). Description: ITC.
In test [7] the target is IRF5 (222-467) S430D (human). As to the kind of experiment: ITC.
The target in test [8] is IRF5 (222-467) S430D (human). As to the kind of experiment: AUC.

As for “CBP (residues 2067-2112) (from UniProt Q92793 2067-2112) (domain or fragment)”, the dissociation constant (Kd) in test [1] worked out at 0.96 µM; in test [2] it was 1.64 µM; in test [3] it was 2.28 µM; in test [4], 2.41 µM; in test [5], 0.67 µM; in test [6] it was 0.71 µM. The substance further gave a Kd in test [7] of 0.56 µM. The dH in test [1] was -54 kJ/mol; in test [2], -60.2 kJ/mol; in test [3], -26.8 kJ/mol; in test [4], -43.1 kJ/mol; in test [5], -28.5 kJ/mol; in test [6], -55.6 kJ/mol. For the same substance, the dH in test [7] was -63.6 kJ/mol. In addition, the stoichiometry N in test [1] was found to be 0.98; in test [2] it was 1.05; in test [3] it was 1.03; in test [4] it was 1.08; in test [5] it was 1.07; in test [6], 1.04. Moreover, in test [7], the stoichiometry N was 1.02.

With “IRF5 (222-467) S430D (domain or fragment)”, the stoichiometry N in test [8] came out at 2.
